Reference: the nanobody polyreactivity screen of Harvey et al. (2022)

Experiment: yeast display, Sf9 membrane polyspecificity reagent, FACS + sequencing; frameworks hold sequencing errors
Summary of the method: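 Polyreactivity labels are assigned by the sorting gate from which each nanobody was recovered. The gates were low and high (top ~1%), set on anti-HA fluorescence for expression and streptavidin fluorescence for reagent binding. Before sorting, galactose-induced (36–48 hours) yeast display cells were stained for 1 hour at 4 °C with 10% biotinylated, detergent-solubilized Sf9 membrane reagent.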

Sequence | polyreactivity (PSR sort gate)
QVQLVESGGGLVQAGGSLRLSCAASGSTLKYYTMGWYRQAPGKERELVAAISWSGGRTYYADSVKGRFTISRDNAKNTVYLQMNCLKPEDTAVYYCAKYPGYRSSGRISYEYDYWGQGTQVTVSS | high polyreactivity
QVQLVESGGGLVQAGGSLRLSCAASGSTLKYYTMGWYRQAPGKERELVAAISWSGGRTYYADSVKGRFTISRDNAKNTVYLQMNSLKPEDTAVYYCNARRTFPRYDRKYESWGQGTQVTVSS | high polyreactivity
QVQLVESGGGLVQAGGSLRLSCAASGSTLNVNAMGWYRQAPGKERELVAAITSGGSTYYADSVKGRFTISRDNAKNTVYLQMNSLKPEDTAVYYCNKRRSWRPTYPFGGSGFYYWGQGTQVTVSS | low polyreactivity
QVQLVESGGGLVQAGGSLRLSCAASGSTLNYYAMAWYRQAPGKEMELVAAITWSGGSTSYADSVKGRFTISRDNAKNTVYLQMNSLKPEDTAVYYCATDFPTVQLYDTDWLSSDMGYWGQGTQVTVSW | low polyreactivity
QVQLVESGGGLVQAGGSLRLSCAASGSTLNYYAMGWYRQAPGKERELVAAITWSGGSTSYADSVKGRFTISRDNAKNTVYVQMNSLKPEDTAVYYGATDFPTVQLYDTDWLSSDMGYWGQGTQVTVSS | low polyreactivity
QVQLVESGGGLVQAGGSLRLSCAASGSTLNYYAMGWYRQAPGKEWELVAAITWSGGSTSYADSVKGRFTISRDNAKNTVYLQMNSLKPEDTAVYYCATDFPTVQLYDTDWLSSDMGYWGQGTQVTVSS | low polyreactivity
QVQLVESGGGLVQAGGSLRLSCAASGSTLPGNTMGWYRQAPGKERELVAAISKSGGTTYYADSVKGRFTISRDYAKNTVYLQMNSLKPEDTAVYYCAAKPWVWVYARYGKHPSYDYWGQGTQVTVSS | high polyreactivity
QVQLVESGGGLVQAGGSLRLSCAASGSTLPPNAMGWSRQAPGKERELVAAISYSGDSTHYADSVKGRFTISRDNAKNTVYLQMNSLKPEDTAVYYCYASSPGAVPVYDYDYWGQGTQVTVSS | low polyreactivity
QVQLVESGGGLVQAGGSLRLSCAASGSTLPRYTMGWYRQAPGKERELVAAISFSGSSTYYADSVKGRFTISRVNAKNTVYLQMNSLKPEDTAVYYCRYGYNYWGQGTQVTVSS | high polyreactivity
QVQLVESGGGLVQAGGSLRLSCAASGSTLPTNAMGWYRQAPGKERELVASNDQSGGSTYADSVKGRFTISRDNAKNTVYLQMNSLKPEDTAVYYCNARDSLRYYTYYFEYYRVGYEYWGQGTQVTVSS | high polyreactivity
QVQLVESGGGLVQAGGSLRLSCAASGSTLQSYAMGWYRQAPGKERELVAGIRISGGNTRYADSVKGRFTISRDNAKNTVYLQMNSLKPEDTAVYYCAALTGFYNLRPYGYWGQGTQVTVSS | high polyreactivity
QVQLVESGGGLVQAGGSLRLSCAASGSTLRGNAMGWYRQAPGKERELVAAISWSGGSTYYADSVKGRFTISRDNAKNTVYLQMNSLKPEDTAVYYRATASPSTRYGRLGDYWGQGTQVTVSS | low polyreactivity
QVQLVESGGGLVQAGGSLRLSCAASGSTLRPYAMGWYRQAPGKERELVAAISKSGASTYYADSVKGRFTISRDNAQNTVYLQMNSLKPEDTAVYYCNAGRGTGETLYGYDYWGQGTQVTVSS | high polyreactivity
QVQLVESGGGLVQAGGSLRLSCAASGSTLRPYAMGWYRQAPGKERELVAAISKSGASTYYADSVKGRVTISRDNANNTVYFQMNSLKPEDTAVNYCNAGRGTWETLYGYDYWGQGTQVTVSS | high polyreactivity
QVQLVESGGGLVQAGGSLRLSCAASGSTLRRYAMGWYRQAPGKEMELVAAISGSGDSTYYADSVKGRFTISRDNAKNTVYLQMNSLKPEDTAVYYCNAVYAFNGYDYWGQGTQVTVSS | low polyreactivity
QVQLVESGGGLVQAGGSLRLSCAASGSTLRRYAMGWYRQAPGKERELVAAITRGSSTTYADSVKGRFTISRDNAKNTVYLQMNSLKPEDTAVYYCNTYFSRNFDYWGQGTQVTVSS | high polyreactivity
QVQLVESGGGLVQAGGSLRLSCAASGSTLRYYAMGWYRQAPGKEREMVADITSSGNTNYADSVKGRFTISRDNAKNTVYLQMNSLKPEDTAVYYCAGDSANYQWYLSWQKDDYWGQGTQVTVSS | low polyreactivity
QVQLVESGGGLVQAGGSLRLSCAASGSTLSIYAMGWYRQAPGKERELVAAISSIGGSTYYADSVKGRFTISRDNAKNTVYLQMNSLKPEDTAVYYCAAELYGGYYYWGQGTQVTVSS | high polyreactivity
QVQLVESGGGLVQAGGSLRLSCAASGSTLSIYAMGWYRQAPGKERELVATIRWSAGRTSYADSVKGRFTISRDNAMNTVYLQMNSLKPEDTAVYSCNAVRYRYYFYWTGKSYDYWGQGTQVTVSS | high polyreactivity
QVQLVESGGGLVQAGGSLRLSCAASGSTLSQNAMGWYRQAPGKEREFVADISGSGDSTYYADSVKGRFTISRDNAKNTVYLQMNSLKPEDTAVYYCATPSPHVGLKWEYDYWGQVTQVTVSS | low polyreactivity
QVQLVESGGGLVQAGGSLRLSCAASGSTLSRYAMGWYRQAPGKERELVATITRRGGSTFYADSVKGRFTISRDNAKNTVYLQMNSLKPEDTAVYYCAVGRLFWGQGTQVTVSS | low polyreactivity
QVQLVESGGGLVQAGGSLRLSCAASGSTLSSNAMGWYRQAPGKERELVAAINRRGGTYYADSVKGRFTISRDNAKNTVYLQMNSLKPEDTAVYYCAAASPYHEYDYWGQGTQVTVSS | low polyreactivity

Sequence | polyreactivity (PSR sort gate)
QVQLVESGGGLVQAGGSLRLSCAASGSTLSVYAMGWYRQAPGKERELVAVISRSGGSTYYADSVKGRFTISRDNAKNTVYLQMNSLKPEDTAVYYCAARGRRTGDYDYWGQGTQVTVSS | high polyreactivity
QVQLVESGGGLVQAGGSLRLSCAASGSTLTWNAMGWYRQAPGKERELVATISYSGSSTYYADSVKGRFTISRDNAKNSVYLQMFSLKPEDTAGYYCNAQELAYGHGFDSWGLGTQVTVSS | low polyreactivity
QVQLVESGGGLVQAGGSLRLSCAASGSTLVDYAMGWYRQAPGKERELVAAISASGGTTYYADSVKGRFTISRDNAKNTVYLQMNSLKPEDTAVYYCAKYHYYYFPYDYWGQGTQVTVSS | low polyreactivity
QVQLVESGGGLVQAGGSLRLSCAASGSTLVPNAMGWYRQAPGKERELVATISFSSGRTYYADSVKGRFTISRDNAKNTVYLQMNSLKPEDTAVYYCNARSFGPTESRYDYWGQGTQVTVSS | high polyreactivity
QVQLVESGGGLVQAGGSLRLSCAASGSTLVSNAMGGYRQAAGKERELVAAITSGGSTYYADSVKGRFTISRDNAKNTVYLQMNSRKPEDTAVYYCNADRTRGYQRYDYWGQGTQVTVSS | high polyreactivity
QVQLVESGGGLVQAGGSLRLSCAASGSTLVSYAMGWYRQSPGKERELVATISWRGGSTYYADSVKGRFTISRDNAKNTVYLQMNSLKPEDTAVYYCAADLWHSQYYYGYEYWGQGTQVTVSS | low polyreactivity
QVQLVESGGGLVQAGGSLRLSCAASGSTLVTHAMGWYRQAPGKERELVAGISRSGGSTYYADSVKGRFTISRDNAKNTVYLQMNSLKPEDTAVYYCAARNYRYLYRMEYWGQGTQVTVSS | high polyreactivity
QVQLVESGGGLVQAGGSLRLSCAASGSTLVTNAMGWYRQAPGKERELVAAITFSGGTTYYADSVKGRFTISRDNAKNTVYLQMNSLKPEDTAVYYCAAEIWLEYVGYDYWGQGTQVTVSS | high polyreactivity
QVQLVESGGGLVQAGGSLRLSCAASGSTLVTNAMGWYRQAPGKERELVAAITFSGGTTYYADSVTGRFTISRDNAKNTVYVQMNSLKPEDTAVYYCAAEIWLEYVGYDYWGQGTQVTVSS | high polyreactivity
QVQLVESGGGLVQAGGSLRLSCAASGSTLVTYAMGWYRQAPGKERELVAAISWRGGSTYYADSVKGRFTISRDNAKNTVELQMNSLKPEDTAVYYCNKLRAYKESETYYYWGQGTQVTVSS | low polyreactivity
QVQLVESGGGLVQAGGSLRLSCAASGSTLWSNTMGWYRQAPGKERELVDAISSGGGSTYADSVKGRFTISRDNAKNTVYLQMNSLKPEDTAVYYCAASAYYYRHSSWHRRDYWGQGTQVTVSS | high polyreactivity
QVQLVESGGGLVQAGGSLRLSCAASGSTLWTYAMGWYRQAPGKERELVAAISGGGGSTYYADSVKGRFTISRDNAKNTVYLQMNSLKPEDTAVYYCAAVTWVGWGQRRRDYWGHGTQVTVSS | high polyreactivity
QVQLVESGGGLVQAGGSLRLSCAASGSTLWVYAMGWYRQAPGKERELVAAITQSTGDTHYADSVKGRFTISRDNAKNTVYLQMNSLKPEDTAVYYCAADSYLSVYDPYGYWGQGTQVTVSS | low polyreactivity
QVQLVESGGGLVQAGGSLRLSCAASGSTLYGYAMGWYRQAPGKVRELVAAISSRAVRTYYADSVKGRFTISRDNAKNTVYLHMNSLKPEDTAVYYCAAKRSYAYEYWGQGTQVTVSS | high polyreactivity
QVQLVESGGGLVQAGGSLRLSCAASGSTLYKYAMGWYRQSPGKERELVAAISWSGSSTYYADSVKGRFTISRDNAKNTVYLQMNSLKPVDTAVYYCAAYPRPYIGYTDVYVWYEFDYWGQGTQVTVSS | low polyreactivity
QVQLVESGGGLVQAGGSLRLSCAASGSTLYNNAMGWYRQAPGKERELVAAITRRGGSTYYADSVKGRFTISRDNAKNTVYLQMNSLNPEDTAVYFCAADDSRYASGQFQEEYDYWGLGTQVTVSS | low polyreactivity
QVQLVESGGGLVQAGGSLRLSCAASGSTLYRYAMGWYRQAPGKERELVAAISSSGGSTYYADSVKGRFTISRDNAKNTVYLQMNSLKPEDTAVYYCAATSSFYFILYDYWGQGTQVTVSS | high polyreactivity
QVQLVESGGGLVQAGGSLRLSCAASGSTLYRYAMGWYRQAPGQERELFATIRSGVNTNYADSVKGRFTISRDNAKNTVYLQMNSLKPEDTAVYYCNARTVYGVYWGRYDYWGQGTQVTVSS | high polyreactivity
QVQLVESGGGLVQAGGSLRLSCAASGSTLYSYAMGWYRQAPGKEREFVAAITSDDGSTYYADSVKGRFTISRDNAKNTVYLQMNSLKPEDTAVYYCATAASVEYNYWGQGTQVTVSS | low polyreactivity
QVQLVESGGGLVQAGGSLRLSCAASGSTLYYNAMGWYRQAPGKERELVAAITSGGSTSYADSVKGRFTISRDNAKNTVYLQMNSLKPEDTAVYYCAAVFYRRFDYWGQGTQVTVSS | low polyreactivity
QVQLVESGGGLVQAGGSLRLSCAASGSTLYYYTMGWYRQAPGKERELVAAINWSGTITYYADSVKGRFTISRDNAKNTVYLQMNSLKPEDTAVYYCNAVYYRQGFDYWGQGTQVTVSS | high polyreactivity
